For test [1], the target named is Prp19 (Chlamydomonas reinhardtii (endogenous)). The experiment in a line: cryo-EM structure; endogenous spliceosomes (C* complex) isolated at 4 °C by the same procedure from the Cdc5L-Flag and the Prp19-Flag knock-in strains: anti-FLAG M2 resin (20 mM HEPES-KOH pH 7.9, 150 mM NaCl, 1.5 mM MgCl2, 4% glycerol), FLAG peptide elution, 10-30% glycerol gradient with 0-0.1% glutaraldehyde; two reconstructions at 2.6 Å without obvious differences, one atomic model.

Test [2] addresses Prp19-Flag (Chlamydomonas reinhardtii (endogenous)). Described as above.

The term stoichiometry N denotes the number of molecules, sites or subunits per partner or assembly. As for Prp19 (natural protein), the stoichiometry N in test [1] came to 4.

In turn, Prp19-Flag (natural protein) gave a stoichiometry N in test [2] of 4.

The values above are taken from PMC11833078.
